Biological target: the molecule itself
Assay: SEC

B1: TatB^22–171 (soluble membrane-extrinsic cytoplasmic domain of E. coli TatB, transmembrane helix residues 1–21 deleted) (domain or fragment, UniProt P69425 22-171, looked up)
chain: PQRLPVAVKTVAGWIRALRSLATTVQNELTQELKLQEFQDSLKKVEKASLTNLTPELKASMDELRQAAESMKRSYVANDPEKASDEAHTIHNPVVKDNEAAHEGVTPAAAQTQASSPEQKPETTPEPVVKPAADAEPKTAAPSPSSSDKP
notes: also called membrane-extrinsic domain of TatB; soluble TatB
binding result: binds

Source: PMC9436932 (Scientific Reports, 2022)
